Assay results from US20230348605A1.

target: purified human TNC protein (human) (UniProt P24821); experiment: BLI

| Kd | Binder |
| --- | --- |
| < 1 pM | NJT3 (VHH, labelled with Texas Red via sortase-mediated tagging in the ex vivo imaging assay) VHH: QVQLVETGGGLAQAGGSLRLSCAASGRTLSGYAMGWFRQAPGKEREFVAAISWSGRNTYYDYTVQGRFTISKDNAKNTVNLQMNSLKPEDTAVYYCAVSRSLDEFGDGYEMDYWGDGTQVTVSS |
| < 1 pM | NJT4 (VHH, labelled with Texas Red via sortase-mediated tagging in the ex vivo imaging assay) VHH: QVQLVESGGGLVQPGGSLRLSCAASGFTFSSYTMRWYRQAPGKERELVAFIGVAGGSTKYADSVKGRFTISRDNTKNTVYLQMNTLKPEDTAVYYCYAPLTPYWGQGTQVTVSS |
| < 1 pM | NJT6 (VHH, labelled with Texas Red or 64Cu via sortase-mediated tagging in the imaging assays) VHH: QVQLVETGGDLVQPGGSLRLSCAASGLTLDYYAIGWVRQAPGKEREGVSCITPQDGNTYYDDSVMGRFTILRDNAKNMVYLQMNNLKPEDTAVYFCAAAGALTLDPSEYEYWGQGTQVTVSS |
